Biological target: the molecule itself
Assay: negative-stain electron microscopy + sedimentation assay

Protein | binding result
454C, COOH-terminal half of scruin (domain or fragment) MQQGDSSGSTMLEGNDRISGRIRTYISGYRPLPPDQDDLSKELVPVSIPFWPPDPDTTDSVFHTVRDQYRNPEEQMGFKHFYTIPRQMDPNLGMLLFMDEDYQHSKKVLGLRSVESVPYYINRFQASGTIQDNTIPVIIGTGGVDLRDPMNIAYGRSVFQYHPLKDRWEFFGYMPQPRNYHAAAYYRSAIYITGGYDPDVRTWGEMVATKTTFVYELASKNWTRMGDMRCARSHHSLLVFNDVLYAIGGRDDIGRLVSSVESYDHESNEWTMEKSMPSPRMGMAAVAHGGYIWLLGGLTSMTTEEPPVLDDVLCYDPVFKHWVDGRPLRIGRAFGNAAVCDNKIWLCGGAAPSTDENNYLVSVPAIDVYDEETMEWKQKTSLGCPRHSAIVVALESCLYIAGGVNSHELSATSRNELYMVDNDTIQTVRELPIPLTGMAAVTIPPKCVTFRSESLSIMIRHKVTP | binds
590C, smaller COOH-terminal fragment of scruin (domain or fragment) VIIGTGGVDLRDPMNIAYGRSVFQYHPLKDRWEFFGYMPQPRNYHAAAYYRSAIYITGGYDPDVRTWGEMVATKTTFVYELASKNWTRMGDMRCARSHHSLLVFNDVLYAIGGRDDIGRLVSSVESYDHESNEWTMEKSMPSPRMGMAAVAHGGYIWLLGGLTSMTTEEPPVLDDVLCYDPVFKHWVDGRPLRIGRAFGNAAVCDNKIWLCGGAAPSTDENNYLVSVPAIDVYDEETMEWKQKTSLGCPRHSAIVVALESCLYIAGGVNSHELSATSRNELYMVDNDTIQTVRELPIPLTGMAAVTIPPKCVTFRSESLSIMIRHKVTP | binds

Source: PMC2120335 (The Journal of Cell Biology, 1995)
